Data from patent publication EP4736885A1 (CSPC Megalith Biopharmaceutical Co., Ltd., dated 2025).
Residue numbers refer to the chain shown, from its start.

T1: B7H3 on B7H3-positive human melanoma A375 cells (human, UniProt Q5ZPR3 29-534)
T1 construct: whole, on cells; Endogenous B7H3 on A375 cells; also called B7H3-positive A375 cells
T1 sequence (looked up): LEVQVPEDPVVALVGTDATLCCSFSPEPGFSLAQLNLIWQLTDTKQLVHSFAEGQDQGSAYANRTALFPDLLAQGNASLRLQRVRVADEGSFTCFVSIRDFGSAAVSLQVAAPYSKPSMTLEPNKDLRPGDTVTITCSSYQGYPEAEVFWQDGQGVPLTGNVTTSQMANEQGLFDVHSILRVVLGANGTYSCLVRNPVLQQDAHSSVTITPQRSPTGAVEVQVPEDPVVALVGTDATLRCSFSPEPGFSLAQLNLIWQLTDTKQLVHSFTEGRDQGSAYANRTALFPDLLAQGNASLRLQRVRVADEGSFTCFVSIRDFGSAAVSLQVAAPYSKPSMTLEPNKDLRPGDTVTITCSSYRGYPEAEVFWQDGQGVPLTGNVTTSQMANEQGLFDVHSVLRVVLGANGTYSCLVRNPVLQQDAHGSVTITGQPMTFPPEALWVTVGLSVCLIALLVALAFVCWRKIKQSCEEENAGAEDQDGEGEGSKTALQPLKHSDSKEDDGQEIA

T2: His-tagged human B7H3 protein (purchased from Beijing ACROBiosystems Co., Ltd.) (human, UniProt Q5ZPR3-2 29-245, limits assumed)
T2 construct: not shown: His tag
T2 sequence (looked up): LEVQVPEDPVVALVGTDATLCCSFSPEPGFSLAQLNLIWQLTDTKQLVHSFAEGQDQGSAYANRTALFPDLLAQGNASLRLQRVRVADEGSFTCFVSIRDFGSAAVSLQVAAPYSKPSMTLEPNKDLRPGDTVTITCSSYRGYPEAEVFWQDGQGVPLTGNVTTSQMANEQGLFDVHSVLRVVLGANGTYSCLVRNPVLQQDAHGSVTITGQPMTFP

B1: M30 antibody (CN103687945B) (antibody, human IgG1, kappa, V domains shown)
VH: QVQLVQSGAEVKKPGSSVKVSCKASGYTFTNYVMHWVRQAPGQGLEWMGYINPYNDDVKYNEKFKGRVTITADESTSTAYMELSSLRSEDTAVYYCARWGYYGSPLYYFDYWGQGTLVTVSS
VL: EIVLTQSPATLSLSPGERATLSCRASSRLIYMHWYQQKPGQAPRPLIYATSNLASGIPARFSGSGSGTDFTLTISSLEPEDFAVYYCQQWNSNPPTFGQGTKVEIKR
notes: also called M30-H1/M30-L4
B2: antibody-drug conjugate 43B-045-6 (antibody, human IgG1, kappa, L234A L235A)
heavy: QVQLVQSGAEVKKPGASVKVSCKASGYTFTDYFMNWVRQAPGQGLEWMGDVNPKTGSPSYNQKFKGRVTMTRDTSTSTVYMELSSLRSEDTAVYYCARRYGFLYSMDYWGQGTSVTVSSASTKGPSVFPLAPSSKSTSGGTAALGCLVKDYFPEPVTVSWNSGALTSGVHTFPAVLQSSGLYSLSSVVTVPSSSLGTQTYICNVNHKPSNTKVDKRVEPKSCDKTHTSPPCPAPEAAGGPSVFLFPPKPKDTLMISRTPEVTCVVVDVSHEDPEVKFNWYVDGVEVHNAKTKPREEQYNSTYRVVSVLTVLHQDWLNGKEYKCKVSNKALAASIEKTISKAKGQPREPQVYTLPPSREEMTKNQVSLTCLVKGFYPSDIAVEWESNGQPENNYKTTPPVLDSDGSFFLYSKLTVDKSRWQQGNVFSCSVMHEALHNHYTQKSLSLSPGK
light: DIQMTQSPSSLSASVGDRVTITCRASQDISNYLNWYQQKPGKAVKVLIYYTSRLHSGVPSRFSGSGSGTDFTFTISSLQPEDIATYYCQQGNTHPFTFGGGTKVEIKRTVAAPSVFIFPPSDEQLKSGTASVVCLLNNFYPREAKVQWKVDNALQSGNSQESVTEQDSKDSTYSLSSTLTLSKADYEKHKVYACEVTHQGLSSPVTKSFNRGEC
modifications: linker-drug compound 045 (exatecan) on thiols of reduced interchain cysteines; DAR of the whole conjugate 5.7
B3: anti-B7H3 antibody 43A (antibody, human IgG1, kappa, L234A L235A)
heavy: B2 heavy with S228C
light: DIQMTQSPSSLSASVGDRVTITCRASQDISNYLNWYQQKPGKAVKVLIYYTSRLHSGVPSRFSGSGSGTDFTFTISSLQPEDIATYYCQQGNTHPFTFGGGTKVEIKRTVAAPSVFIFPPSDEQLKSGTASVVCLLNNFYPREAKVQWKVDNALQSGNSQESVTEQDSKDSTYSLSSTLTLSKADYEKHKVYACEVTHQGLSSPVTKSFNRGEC
notes: 2 identical heavy chains and 2 identical light chains
B4: anti-B7H3 antibody 43B (antibody, human IgG1, kappa, L234A L235A)
heavy: B2 heavy
light: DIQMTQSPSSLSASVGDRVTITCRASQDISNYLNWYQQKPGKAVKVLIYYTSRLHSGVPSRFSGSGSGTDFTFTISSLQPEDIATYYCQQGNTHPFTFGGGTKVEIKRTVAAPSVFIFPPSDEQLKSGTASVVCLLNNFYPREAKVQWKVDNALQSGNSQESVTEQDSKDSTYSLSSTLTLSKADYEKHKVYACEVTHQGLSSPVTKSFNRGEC
notes: as for B3
B5: antibody-drug conjugate 43A-DXd (antibody, human IgG1, kappa, L234A L235A)
heavy: B2 heavy with S228C
light: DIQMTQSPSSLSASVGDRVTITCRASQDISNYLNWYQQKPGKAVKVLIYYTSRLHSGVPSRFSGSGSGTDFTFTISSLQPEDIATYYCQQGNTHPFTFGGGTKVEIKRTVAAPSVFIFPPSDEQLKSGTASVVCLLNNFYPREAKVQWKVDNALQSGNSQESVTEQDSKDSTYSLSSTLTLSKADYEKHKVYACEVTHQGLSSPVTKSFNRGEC
modifications: deruxtecan linker-drug on thiols of reduced interchain cysteines; DAR of the whole conjugate 7.4
B6: antibody-drug conjugate 43A-042 (antibody, human IgG1, kappa, L234A L235A)
heavy: B2 heavy with S228C
light: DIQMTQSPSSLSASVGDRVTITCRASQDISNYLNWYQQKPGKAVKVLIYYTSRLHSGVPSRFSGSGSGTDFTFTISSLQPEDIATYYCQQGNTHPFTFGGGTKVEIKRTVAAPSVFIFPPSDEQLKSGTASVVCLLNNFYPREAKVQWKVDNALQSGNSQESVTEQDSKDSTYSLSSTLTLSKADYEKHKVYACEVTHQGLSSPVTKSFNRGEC
modifications: linker-drug compound A_10 (exatecan) on thiols of reduced interchain cysteines; DAR of the whole conjugate 7.6
B7: antibody-drug conjugate 43A-043 (antibody, human IgG1, kappa, L234A L235A)
heavy: B2 heavy with S228C
light: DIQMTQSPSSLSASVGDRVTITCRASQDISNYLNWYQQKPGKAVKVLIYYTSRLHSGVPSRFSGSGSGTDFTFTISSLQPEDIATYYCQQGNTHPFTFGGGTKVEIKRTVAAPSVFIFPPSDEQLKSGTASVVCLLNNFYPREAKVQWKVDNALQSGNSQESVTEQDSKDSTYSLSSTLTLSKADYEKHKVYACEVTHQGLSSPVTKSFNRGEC
modifications: linker-drug compound B_3 (exatecan) on thiols of reduced interchain cysteines; DAR of the whole conjugate 7.8
B8: antibody-drug conjugate 43B-042 (antibody, human IgG1, kappa, L234A L235A)
heavy: B2 heavy
light: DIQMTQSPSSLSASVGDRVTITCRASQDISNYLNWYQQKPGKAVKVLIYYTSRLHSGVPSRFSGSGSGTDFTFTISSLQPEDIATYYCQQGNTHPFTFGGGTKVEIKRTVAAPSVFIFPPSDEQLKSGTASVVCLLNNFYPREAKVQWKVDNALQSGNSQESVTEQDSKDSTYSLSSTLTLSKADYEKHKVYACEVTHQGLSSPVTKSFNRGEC
modifications: linker-drug compound A_10 (exatecan) on thiols of reduced interchain cysteines; DAR of the whole conjugate 5.9
B9: antibody-drug conjugate 43B-043 (antibody, human IgG1, kappa, L234A L235A)
heavy: B2 heavy
light: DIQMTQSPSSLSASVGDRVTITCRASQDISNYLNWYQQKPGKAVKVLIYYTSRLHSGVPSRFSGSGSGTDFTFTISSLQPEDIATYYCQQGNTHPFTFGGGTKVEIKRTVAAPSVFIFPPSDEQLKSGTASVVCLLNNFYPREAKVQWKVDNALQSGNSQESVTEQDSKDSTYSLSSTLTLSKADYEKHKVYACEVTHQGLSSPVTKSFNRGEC
modifications: linker-drug compound B_3 (exatecan) on thiols of reduced interchain cysteines; DAR of the whole conjugate 5.9

Target: T1, B7H3 on B7H3-positive human melanoma …
Test: flow cytometry on B7H3-positive A375 cells, MFI

Row | EC50 [ng/mL] | Binder
1 | 125 | B1
2 | 37.8 | B2
3 | 54.5 | B3
4 | 61.2 | B4

Target: T2, His-tagged human B7H3 protein …
Test: ELISA, His-tagged human B7H3 coated on plate, anti-human IgG-HRP

Row | EC50 [ng/mL] | Binder
5 | 1.02 | B3
6 | 1.19 | B5
7 | 1.17 | B6
8 | 1.09 | B7
9 | 1.16 | B8
10 | 1.05 | B4
11 | 1.05 | B9
